This is an account of results in PMC3183262.

Assay in all cases: Ni-NTA pull-down of fluorescent DNA with competition, filter plate
Data set [1] addresses IF2D1-Oct4-R9 (human, UniProt Q01860 1-360).
The target of data set [2] is IF2D1-Sox2-R9 (human, UniProt P48431 1-317).
In data set [3] the target is IF2D1-Klf4-R9 (human, UniProt O43474 1-513).
Sequence of IF2D1-Klf4-R9 (O43474 whole entry): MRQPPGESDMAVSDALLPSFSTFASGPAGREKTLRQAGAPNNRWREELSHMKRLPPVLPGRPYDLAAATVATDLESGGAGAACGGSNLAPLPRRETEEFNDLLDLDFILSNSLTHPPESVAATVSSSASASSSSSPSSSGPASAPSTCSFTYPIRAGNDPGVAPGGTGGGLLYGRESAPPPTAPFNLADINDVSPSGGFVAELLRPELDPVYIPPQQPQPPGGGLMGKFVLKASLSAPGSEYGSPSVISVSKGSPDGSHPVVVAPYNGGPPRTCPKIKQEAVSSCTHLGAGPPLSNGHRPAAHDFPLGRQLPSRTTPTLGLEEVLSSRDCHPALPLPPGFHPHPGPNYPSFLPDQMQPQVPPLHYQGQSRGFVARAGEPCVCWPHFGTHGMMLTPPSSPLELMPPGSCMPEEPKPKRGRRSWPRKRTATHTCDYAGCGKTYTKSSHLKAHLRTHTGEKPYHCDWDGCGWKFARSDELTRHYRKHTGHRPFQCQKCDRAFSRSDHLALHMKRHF

Sequence of IF2D1-Oct4-R9 (Q01860 whole entry): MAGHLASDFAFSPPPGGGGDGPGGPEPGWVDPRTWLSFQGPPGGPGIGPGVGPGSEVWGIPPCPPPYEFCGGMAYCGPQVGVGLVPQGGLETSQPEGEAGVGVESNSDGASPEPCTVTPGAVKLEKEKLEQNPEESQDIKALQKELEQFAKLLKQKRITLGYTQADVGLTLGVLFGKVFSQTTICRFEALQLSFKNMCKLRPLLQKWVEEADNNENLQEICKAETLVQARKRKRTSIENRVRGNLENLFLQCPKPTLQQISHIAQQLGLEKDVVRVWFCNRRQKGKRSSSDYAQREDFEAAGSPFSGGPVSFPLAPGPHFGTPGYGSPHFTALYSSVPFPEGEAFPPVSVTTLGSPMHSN
Sequence of IF2D1-Sox2-R9 (P48431 whole entry): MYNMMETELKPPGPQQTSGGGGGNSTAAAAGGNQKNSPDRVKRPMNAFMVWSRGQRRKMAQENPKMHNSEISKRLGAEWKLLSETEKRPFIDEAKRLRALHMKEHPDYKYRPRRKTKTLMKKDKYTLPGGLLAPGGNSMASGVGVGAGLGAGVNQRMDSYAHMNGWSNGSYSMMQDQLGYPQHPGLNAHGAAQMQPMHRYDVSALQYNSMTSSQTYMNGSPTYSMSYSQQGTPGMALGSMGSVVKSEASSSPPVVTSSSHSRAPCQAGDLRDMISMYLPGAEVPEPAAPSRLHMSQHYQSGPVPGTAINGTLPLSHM

B1: Oct4 cognate probe (dsDNA)
DNA 1: CAGAGAGATGCATGTGAGATGCATGTGAGATGCATCG
DNA 2: CGATGCATCTCACATGCATCTCACATGCATCTCTCTG
As for B1, the binding result in data set [1] is given as “binds”.

B2: Sox2 cognate probe (dsDNA)
DNA 1: CAGAGGACAAAGGTGGACAAAGGTGGACAAAGCG
DNA 2: CGCTTTGTCCACCTTTGTCCACCTTTGTCCTCTG
With B2, the binding result in data set [2] is “binds”.

B3: Klf4 cognate probe (dsDNA)
DNA 1: CAGAGAACCCCACCCATAAACCCCACCCATAAACCCCACCCCG
DNA 2: CGGGGTGGGGTTTATGGGTGGGGTTTATGGGTGGGGTTCTCTG
In the case of B3, the binding result in data set [3] is on record as “binds”.
